Assay [1] concerns MMP-13. Put plainly: Enzyme assay, fold change in probe fluorescence over background with MMP-13. The note with it: different probe scaffolds (monomer, dendrimers); MMP-13 52 kDa. Format: biochemical, human. As to the method: (§1) Enzyme specificity of the lead probes with exogenous enzymes was tested using a multiwell plate fluorimeter at excitation/emission 485/528 nm (Table 3). Recombinant human catalytic domain MMPs-1, -2, -3, -7, -8, -9, -10, -11, -12, -13 were used at 30 nM. Cleavage site for each sequence is indicated in italics.
(§2) The different compounds were also evaluated according to the fold change in fluorescent signal in presence of MMP-9 and MMP-13, and the results are shown in Table 7. From this comparison, the FRET dendrimers comprising SEQ ID NO.1 and SEQ ID NO.7 (AMF-106 and SVC-186) together with the 9Dendrimer comprising SEQ ID NO.7 (SVC-196) were chosen for further evaluation. These dendrimers are shown in FIG. 7, probe A (AMF-106), probe B (SVC-186) and probe C (SVC-196).
(§3) The enzyme assays were run in a 384-well format on a PCR opaque microplate (Thermo Scientific). All dilutions and reactions were prepared in MMP buffer (50 mM Tris, 10 mM CaCl2, 0.15M NaCl, 0.05% Brij-35, pH 7). Proteolytic activity was determined by calculating the fold change in fluorescence over background signal provided by the corresponding dilution of the probe and/or inhibitors with exogenous enzymes using a-multiwell plate fluorimeter (Synergy H1 Hybrid Reader, BioTek instruments Ltd) at excitation/emission 485/528 nm. Recombinant human MMPs (Catalytic domain MMP-1, -2, -3, -7, -8, -9, -10, -11, -12, -13 (Enzo Life Sciences) and Full-length MMP-2, -9, -12 and -13 (Merck/Millipore)) were used at 30 nM. Pro-MMP-13 (R & D Systems) was activated by incubating with 1 mM 4-aminophenylmercunc acetate (APMA) for 2 hrs at 37° C. Human neutrophil elastase (Elastase Product Company, used at 2.5 ug/ml), neutrophil lysate (lysed human neutrophils), and recombinant human Thrombin (Sigma-Aldrich, used at 5 U/ml), Plasmin (Sigma-Aldrich, used at 30 nM) and Factor Xa (Sigma-Aldrich, used at 0.5 μM) were used to identify the lead molecular probe sequences. For inhibition assays, enzyme and inhibitor were pre-incubated for 1 hr at 37° C. before the addition of molecular probe.

Assay [2] has as its target T1, plasmin (Homo sapiens, UniProt P00747).
T1 construct: purchased Sigma-Aldrich
Nature of the assay: Enzyme kinetics of the molecular probe, plasmin. Type of assay: biochemical. The method, then:
(§4) Enzyme kinetics of the molecular probe specificity to human MMP-2, MMP-9, MMP-13 and plasmin. The kinetic constants KM and Vmax were calculated for probe A and B (Table 8 below).
as §3, with “For inhibition assays, enzyme and inhibitor were pre-incubated for 1 hr at 37° C. before the addition of molecular probe.” left out

The target of assay [3] is T1, plasmin. Put plainly: Susceptibility / stability of probes to plasmin. Format: biochemical. The method, then: (§5) FIG. 8. Enzyme specificity of the FRET branched probes A, B and C. Data represents the average fold change in fluorescence over background signal provided by probe (10 μM) with exogenous enzymes using a multiwell plate fluorimeter (Synergy H1 Hybrid Reader, BioTek instruments Ltd) at excitation/emission 485/528 nm. Recombinant human catalytic domain MMPs-1, -2, -3, -7, -8, -9, -10, -11, -12, -13 were used at 30 nM. Recombinant human Thrombin, Plasmin and Factor Xa were used at 5 U/ml, 30 nM, 0.5 μM, respectively.
Also, to reduce degradation without altering the amino acid constituents we have synthesised variants including PEG units at the amino and/or carboxy termini in order to block degradation from the ends of the peptide sequence.
(§6) Three selected probes (A: AMF-106, B: SVC-186 B, and C: SVC-196) were evaluated in vitro in a new experiment including other members of the MMP family (MMPs-1, -2, -3, -7, -8, -9, -10, -11, -12, -13) as well as Thrombin, Plasmin and Factor Xa, and the results are shown in FIG. 8. […] The plasmin cleavage site was identified and attempts to make a resistant version replacing with D-aa in these positions were unsuccessful.
as §3, with “Human neutrophil elastase (Elastase Product Company, used at 2.5 ug/ml), neutrophil lysate (lysed human neutrophils), and recombinant human Thrombin (Sigma-Aldrich, used at 5 U/ml), Plasmin (Sigma-Aldrich, used at 30 nM) and Factor Xa (Sigma-Aldrich, used at 0.5 μM) were used to identify the lead molecular probe sequences. For inhibition assays, enzyme and inhibitor were pre-incubated for 1 hr at 37° C. before the addition of molecular probe.” left out

The next assay addresses human MMP-9 (Homo sapiens, UniProt P14780). Put plainly: Enzyme kinetics of the molecular probe, MMP-9. Type of assay: biochemical. The method, then: as §4
as §3, with “For inhibition assays, enzyme and inhibitor were pre-incubated for 1 hr at 37° C. before the addition of molecular probe.” left out

The subject of assay [4] is MMPs-1, -2, -3, -7, -8, -9, -10, -11, -12, -13, Thrombin, Plasmin and Factor Xa. Nature of the assay: Enzyme specificity of the FRET branched probes with exogenous enzymes (FIG. 8). Format: biochemical, human. The conditions noted are these: probe 10 μM; MMPs 30 nM; Thrombin 5 U/ml, Plasmin 30 nM, Factor Xa 0.5 μM. The method, then:
as §5, §6, §3

For assay [5], the target named is MMP-13 (Homo sapiens, UniProt P45452). Nature of the assay: Enzyme kinetics of the molecular probe, MMP-13. Type of assay: biochemical. The method, then:
as §4
as §3, with “For inhibition assays, enzyme and inhibitor were pre-incubated for 1 hr at 37° C. before the addition of molecular probe.” left out

The test system of another assay is MMP-9. Put plainly: Enzyme assay, fold change in probe fluorescence over background with MMP-9. The conditions noted are these: different probe scaffolds (monomer, dendrimers); MMP-9 83 kDa. Format: biochemical, human. As to the method:
A library of probes (listed in Table 2 below) containing FAM (Carboxyfluorescein) as the fluorophore (donor) and MethylRed (MR) as the quencher (acceptor) and a variety of peptide sequences was synthesized by manual standard solid-phase Fmoc peptide chemistry (described below).
as §1, §2, §3

Another assay addresses T2, human MMP-2 (Homo sapiens, UniProt P08253).
T2 sequence (P08253 110-660): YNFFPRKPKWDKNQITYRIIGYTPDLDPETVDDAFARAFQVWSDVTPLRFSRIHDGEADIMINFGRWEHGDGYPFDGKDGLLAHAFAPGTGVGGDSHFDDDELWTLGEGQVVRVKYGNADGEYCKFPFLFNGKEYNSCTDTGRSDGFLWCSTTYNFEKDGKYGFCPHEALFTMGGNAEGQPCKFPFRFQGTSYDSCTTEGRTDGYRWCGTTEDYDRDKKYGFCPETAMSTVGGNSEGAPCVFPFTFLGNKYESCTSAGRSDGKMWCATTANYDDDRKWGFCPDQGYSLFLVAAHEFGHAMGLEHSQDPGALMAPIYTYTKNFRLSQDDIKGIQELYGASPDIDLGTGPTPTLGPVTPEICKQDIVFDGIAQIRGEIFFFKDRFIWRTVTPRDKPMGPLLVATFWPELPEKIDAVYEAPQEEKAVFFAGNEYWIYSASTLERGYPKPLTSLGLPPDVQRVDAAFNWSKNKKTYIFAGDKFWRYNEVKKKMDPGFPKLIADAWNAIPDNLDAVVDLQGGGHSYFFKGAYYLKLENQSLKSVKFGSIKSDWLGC
Nature of the assay: Enzyme kinetics of the molecular probe, MMP-2. Format: biochemical. As to the method:
as §4
as §3, with “For inhibition assays, enzyme and inhibitor were pre-incubated for 1 hr at 37° C. before the addition of molecular probe.” left out

Primed or numbered codes have the meaning given here. Where no end group is shown, it is not given here. The star is where a group is joined. 5FAM = O=C1OC2(c3ccc(O)cc3Oc3cc(O)ccc32)c2ccc(C(=O)*)cc21; PEG2′ = PEG spacer unit (glycol linker)

T1 sequence (P00747 581-810 limits assumed): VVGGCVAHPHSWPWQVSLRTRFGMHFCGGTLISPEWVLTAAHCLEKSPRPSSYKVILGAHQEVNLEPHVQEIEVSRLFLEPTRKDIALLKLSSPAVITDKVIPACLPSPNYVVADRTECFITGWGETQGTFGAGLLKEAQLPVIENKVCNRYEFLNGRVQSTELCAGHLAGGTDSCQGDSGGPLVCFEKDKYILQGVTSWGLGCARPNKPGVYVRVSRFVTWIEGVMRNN
T1 sequence (P00747 97-580 partner limits assumed): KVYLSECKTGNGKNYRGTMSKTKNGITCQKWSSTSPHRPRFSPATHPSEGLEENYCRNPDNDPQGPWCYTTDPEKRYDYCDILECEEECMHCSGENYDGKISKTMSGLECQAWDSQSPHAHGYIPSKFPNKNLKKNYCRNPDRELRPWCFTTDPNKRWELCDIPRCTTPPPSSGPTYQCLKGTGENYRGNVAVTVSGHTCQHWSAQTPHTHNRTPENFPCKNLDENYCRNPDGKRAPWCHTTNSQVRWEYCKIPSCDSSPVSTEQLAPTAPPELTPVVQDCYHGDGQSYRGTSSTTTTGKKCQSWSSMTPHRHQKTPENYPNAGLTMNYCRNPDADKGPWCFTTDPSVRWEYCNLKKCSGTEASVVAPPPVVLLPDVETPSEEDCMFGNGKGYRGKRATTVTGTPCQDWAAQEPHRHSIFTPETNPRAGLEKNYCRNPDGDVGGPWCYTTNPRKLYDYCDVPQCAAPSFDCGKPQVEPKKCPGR
human MMP-9, sequence (P14780 94-707): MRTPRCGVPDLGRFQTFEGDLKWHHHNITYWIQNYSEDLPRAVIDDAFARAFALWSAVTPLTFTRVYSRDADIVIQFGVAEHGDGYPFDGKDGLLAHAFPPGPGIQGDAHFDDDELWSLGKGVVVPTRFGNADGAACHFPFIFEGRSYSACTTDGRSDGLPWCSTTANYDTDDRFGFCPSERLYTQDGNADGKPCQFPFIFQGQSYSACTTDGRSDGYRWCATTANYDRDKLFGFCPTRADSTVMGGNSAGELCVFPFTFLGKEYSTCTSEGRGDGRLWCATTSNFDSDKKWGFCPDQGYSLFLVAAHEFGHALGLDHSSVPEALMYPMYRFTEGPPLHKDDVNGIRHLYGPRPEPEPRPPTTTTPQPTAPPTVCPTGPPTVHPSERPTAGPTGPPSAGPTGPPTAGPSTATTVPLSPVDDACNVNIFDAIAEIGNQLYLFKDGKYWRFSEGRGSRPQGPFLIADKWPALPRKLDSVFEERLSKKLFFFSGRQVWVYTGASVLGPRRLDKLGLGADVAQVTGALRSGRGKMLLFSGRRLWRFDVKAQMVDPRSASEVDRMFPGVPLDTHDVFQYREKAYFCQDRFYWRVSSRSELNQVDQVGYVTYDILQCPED

On to “FAM-PEG2-G-P-K-G-L-K-G-K(MR)-PEG2-k-PEG2-k-3 probe elements ({5FAM-PEG2′}-GPKGLKG; not fully specified (C-terminus); also: three probe elements on a scaffold) [AMF-106]”, for which the “MMP-13 (52 kDa), fold change in fluorescent signal” value with MMP-13 [1] is 34.52. In addition, the Km with plasmin [2] amounted to 0.36 µM; with human MMP-9, 0.53 µM; with MMP-13 [5] it was 0.22 µM; in the assay with human MMP-2, 0.06 µM. For the same substance, the “stability / susceptibility to plasmin” value in the assay with plasmin [3] is listed as “susceptible to plasmin”. Also, the “selectivity for MMP-2/9” value in assay [4] is reported as “better selectivity for MMP-2/9”. Further, the “MMP-9 (83 kDa), fold change in fluorescent signal” value with MMP-9 was 11.20.

Values taken from patent US10507247B2, “Optical probes for matrix metalloproteinases” (The University Court of the University of Edinburgh, priority 2015, dated 2019).
